From publication PMC11404819, “Peptide nucleic acids can form hairpins and bind RNA-binding proteins”

Molecular target: T1, Avi-FtsYNG (UniProt P10121 196-497)
T1 sequence: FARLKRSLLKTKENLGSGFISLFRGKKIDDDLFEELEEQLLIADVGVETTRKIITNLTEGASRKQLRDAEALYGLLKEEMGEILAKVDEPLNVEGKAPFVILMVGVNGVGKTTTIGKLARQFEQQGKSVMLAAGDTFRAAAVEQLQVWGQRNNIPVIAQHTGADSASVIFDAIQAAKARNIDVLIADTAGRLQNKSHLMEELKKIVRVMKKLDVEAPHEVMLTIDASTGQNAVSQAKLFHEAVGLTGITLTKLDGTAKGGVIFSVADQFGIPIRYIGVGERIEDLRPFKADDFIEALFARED
Assay: SPR; 10 C; RNA over immobilised protein; curve incomplete, fit fixed with GDP control; figure legend swaps panels with PNAtet; SPR: 20 mM HEPES pH 7.5, 150 mM NaCl, 3 mM MgCl2, 1 mM TCEP, 1% glycerol, 0.005% Tween, 10 C; MST: 50 mM HEPES pH 7.5, 100 mM NaCl, 1.5 mM MgCl2, 10% glycerol
Conditions: protein: recombinant; tags: Avi tag, biotinylated, immobilised on streptavidin; hairpin, 5 bp stem

GCGCCGGAAGGCGC (structured_RNA, first and last two phosphodiester bonds replaced by phosphorothioate) [moRNAtet]
Kd: 160 ± 20 µM
